This is an account of results in patent US20060115476A1 (ADIENNE, published 2006).

First the molecules themselves.
B1: scFv TS-A12/22 (scFv, not shown: small tags and cut ends)
scFv: DIRMTQSPDSLAVSLGERATINCKSSQSVLYSSNNKNYLAWYQQKPGQPPKLLIYWASTRESGVPDRFSGSGSGTDFTLTISSLQAEDVAVYYCQQYYSTPQLTFGGRTKVDIKSGGSTITSYNVYYTKLSSSGTQVQLQQSEGGVVQPGRSLRLSCAASGFTFSSYGMNWVRQAPGKGLEWVSYISSSSSTIYYADSVKGRFTISRDNSKNTLYLQMNSLRAEDTAVYYCARGPGMDVWGQGTTVTVSS
notes: Obtained from TS-A12 by VL chain shuffling; also called TS-A12/22 antibody
B2: unrelated peptide CS5, derived from fibronectin (GEEIQIGHIPREDVDYHLYP) (peptide)
peptide: GEEIQIGHIPREDVDYHLYP

Experiment [1] deals with T1, C5 component of the complement system (purified C5) (human, UniProt P01031 19-673; P01031 678-1676).
T1 construct: domain: beta chain;domain: alpha chain; In haemolytic assays it was purified C5 or the C5 of human serum; also called factor C5; C5 antigen
T1 sequence (P01031 678-1676 limits assumed, one chain of several): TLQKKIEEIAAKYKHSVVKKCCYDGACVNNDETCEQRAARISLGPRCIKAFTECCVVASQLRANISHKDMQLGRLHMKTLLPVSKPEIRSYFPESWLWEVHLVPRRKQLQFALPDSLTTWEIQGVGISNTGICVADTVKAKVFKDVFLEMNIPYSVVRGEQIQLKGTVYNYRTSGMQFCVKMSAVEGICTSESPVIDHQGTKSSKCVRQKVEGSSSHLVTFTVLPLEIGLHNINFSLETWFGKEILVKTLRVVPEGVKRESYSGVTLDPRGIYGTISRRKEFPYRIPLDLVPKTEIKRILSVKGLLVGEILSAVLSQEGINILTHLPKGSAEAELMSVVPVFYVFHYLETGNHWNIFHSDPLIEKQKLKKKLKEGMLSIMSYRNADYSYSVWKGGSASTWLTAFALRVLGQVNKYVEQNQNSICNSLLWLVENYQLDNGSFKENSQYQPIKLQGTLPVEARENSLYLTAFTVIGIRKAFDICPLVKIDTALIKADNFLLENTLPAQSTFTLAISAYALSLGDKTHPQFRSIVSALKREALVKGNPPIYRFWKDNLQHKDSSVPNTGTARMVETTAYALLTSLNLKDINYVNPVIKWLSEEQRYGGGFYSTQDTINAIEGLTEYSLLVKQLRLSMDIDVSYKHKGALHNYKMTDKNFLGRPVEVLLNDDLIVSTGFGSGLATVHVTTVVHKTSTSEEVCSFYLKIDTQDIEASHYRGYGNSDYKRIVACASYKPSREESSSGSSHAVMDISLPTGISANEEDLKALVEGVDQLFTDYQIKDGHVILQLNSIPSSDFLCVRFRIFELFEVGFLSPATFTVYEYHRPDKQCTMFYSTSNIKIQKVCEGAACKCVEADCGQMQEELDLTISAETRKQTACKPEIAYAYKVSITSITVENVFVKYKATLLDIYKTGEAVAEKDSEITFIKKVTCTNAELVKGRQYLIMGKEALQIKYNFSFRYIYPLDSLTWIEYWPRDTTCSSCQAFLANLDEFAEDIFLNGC
Briefly: SPR, BIACORE 2000, C5 immobilised on the chip. Background: SPR reads the build-up and loss of mass on a sensor chip optically.
Description: The microchip (CM5, Biacore) was prepared by direct conjugation of the C5 antigen with amines (20 μg/ml in 10 mM Sodium Acetate pH 4.5). The final level of immobilisation turned out to be approximately 1000 RU (Resonance Units). Association and dissociation of antibody molecules from the bio-chip were measured using an optical detection system (Surface Plasmon Resonance).
The analysis was carried out at 25° C., at a flow of 15 μl/min, using 4 different scFv concentrations in the range comprised between 100-300 nM, in PBS, 0.005% P20 (Biacore). The binding curves were interpolated 1:1 according to the model of Langmuir, using the dedicated software termed BIAevaluation (version 3.5) with correction for the mass transfer.

The target in another experiment is T2, C5 beta chain (human, UniProt P01031 19-673, reduced with DTT and treated with iodoacetamide (alkylated cysteines)).
T2 construct: domain: beta chain; Separated from purified C5 by reduction, alkylation and gel filtration on Superose 12; also called beta sub-unit of C5; C5 beta subunit
T2 sequence (looked up): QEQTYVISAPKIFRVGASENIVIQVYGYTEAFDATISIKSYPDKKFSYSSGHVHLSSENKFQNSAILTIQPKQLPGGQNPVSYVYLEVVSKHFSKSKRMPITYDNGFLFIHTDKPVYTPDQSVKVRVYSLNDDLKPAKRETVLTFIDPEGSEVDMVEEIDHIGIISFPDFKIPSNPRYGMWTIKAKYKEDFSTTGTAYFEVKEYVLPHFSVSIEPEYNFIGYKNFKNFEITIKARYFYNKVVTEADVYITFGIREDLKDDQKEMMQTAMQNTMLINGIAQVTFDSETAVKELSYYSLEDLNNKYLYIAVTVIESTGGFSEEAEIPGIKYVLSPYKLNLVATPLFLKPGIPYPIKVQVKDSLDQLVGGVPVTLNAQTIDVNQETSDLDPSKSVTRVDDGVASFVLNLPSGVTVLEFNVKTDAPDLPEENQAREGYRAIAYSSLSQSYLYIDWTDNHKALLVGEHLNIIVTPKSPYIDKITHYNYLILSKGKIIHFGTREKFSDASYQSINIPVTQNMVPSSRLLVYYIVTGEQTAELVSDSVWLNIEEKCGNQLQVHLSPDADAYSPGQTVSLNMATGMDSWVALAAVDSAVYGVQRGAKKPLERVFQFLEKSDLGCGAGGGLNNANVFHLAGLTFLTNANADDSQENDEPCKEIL
Briefly: Western blot.

Experiment [2] addresses B2. The experiment can be described thus: competitive ELISA: scFv pre-incubated with the peptide, binding to C5 on solid phase. The source says: (§1) This peptide corresponds to region 727-744 of the mature protein and comprises the cleavage site of C5 convertase (indicated by the arrow) between glycine 733 and arginine 734 according to SwissProt numbering for human C5 (SEQ ID P01031). The peptide was used in a competitive ELISA assay on the C5 protein on solid phase. […] (SEQ ID No. 16 of sequence listing) corresponding to a fibronectin derived peptide termed CS5.

The experiment “scFv TS-A12/22” concerns the target B1. Briefly: competitive ELISA: scFv TSA-12/22 (1 µg/ml) pre-incubated with the peptide, then binding to C5 on solid phase, given as % of the saline control.
Description: as §1
In general terms: ELISA stands for enzyme-linked immunosorbent assay.

Description for C5 beta chain: Briefly the two subunits were electrophoresed in separate wells and transferred on nitrocellulose membranes. A solution containing Tris 50 mM pH 7.6, 0.5 M NaCl and 4% skimmed powder milk was used to block non-specific sites for 1 hour at 37° C. […] The enzymatic reaction was developed with blue tetrazolium and 5-bromo-4-chlorine-3-indolil phosphate (Sigma-Aldrich, 0.30 mg/ml) diluted in 0.1 M Tris-HCl pH 9.5 containing 0.1 M NaCl and 5 mM MgCl₂.

A word on the Kd: it is the free concentration of one partner at which half of the binding sites on the other are occupied at equilibrium, for simple one-to-one binding. A higher Kd goes with a looser complex. B1 gave a Kd in experiment [1] of 18 nM. Also, the figures for the binding result (with C5 beta chain; in experiment [2]) were “no binding (tested: 100 ng of beta chain)” and “no binding (tested: 800 ng)”, respectively.
Take B2: the binding result with scFv TS-A12/22 was “no binding (tested: 800 ng)”.
